Results from patent US20100015637A1 (AbbVie / Abbott, published 2010).

Key:
[1] = molecular target: human PlGF-1 comprising amino acids 1-137 produced in human embryonic kidney cells (human) (UniProt P49763); experiment: Format 2 …, capture MAb264, detection Pb264; sFlt-1 920 pmol/L (ratio 30)
[2] = molecular target: recombinant human PlGF-1 (comprising amino acids 1-131) expressed in E. coli (R&D Systems) (human) (UniProt P49763); experiment: … sandwich, capture MAb826, detection pAb264; antigen 750 pg/mL
[3] = molecular target: recombinant human PlGF-1 (comprising amino acids 1-131) expressed in E. coli (R&D Systems) (human) (UniProt P49763); experiment: … sandwich, capture MAb255, detection pAb264; antigen 1500 pg/mL

human PlGF-1 comprising amino acids 1-137 produced in human embryonic kidney cells (human), sequence (P49763 other isoform, or with tags, fused parts or gaps): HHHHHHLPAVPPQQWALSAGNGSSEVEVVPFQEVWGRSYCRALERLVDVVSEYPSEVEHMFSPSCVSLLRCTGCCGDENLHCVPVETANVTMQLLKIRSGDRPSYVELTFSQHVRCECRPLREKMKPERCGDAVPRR

With “native sFlt-1, isolated from human placental tissue (from UniProt P17948 27-687) (receptor)” the % Inhibition [1] was 91.3% and the PlGF-1 Measured [1] was 68.2 pg/mL.

B1: monoclonal antibody 2-826-335 (produced by murine hybridoma cell line 2-826-335, ATCC PTA-8539) (antibody, mouse IgG1, V domains shown)
VH: QVQLKQSGPGLVQPSQSLSITCTVSGFSLTTYGIHWVRQSPGKGLEWLGVMWSGGDTDYDAAFISRLSISKDNSKSQVFFKMNSLQANDTGIYYCARYRFYGMDYWGQGTSVTVSS
VL: AIQMTQSSSSFSVSLGDRVTITCKASEDIYNRFAWYQQKPGNAPRLLISGAASLEAGVPSRFSGSGSGQDYTLSITSLQTEDVATYYCQQYWSTPWTFGGGTKLEIKR
notes: also called MAb826
B1 showed an RLU [2] of 606000 RLU.

B2: monoclonal antibody 1-255-713 (produced by murine hybridoma cell line 1-255-713, ATCC PTA-8536) (antibody, mouse IgG2a, V domains shown)
VH: QVHLQQSGAELMKPGASVKISCKATGYTFSSYWIEWVKQRPGHGLEWIGEILPGSVSNNFNEKFKDKATLTADPSSNTAYIQVSSLTSEDSAVYYCARSTGFYYGGNYFDHWGQGTTLAVSS
VL: DVVMTQTPLSLPVSPGDQASISCRSSQSLVHSNGHTYLHWYLQKPGQSPKLLIYKVSNRFSGVPDRVSGSGSGTDFTLKISRVEAEDLGVYFCSQSTHVPPTFGGGTKLEIKR
notes: also called MAb255
B2 gave an RLU [3] of 2.19e+06 RLU.
